B1: huSP34.9.2 Fab-HF (Fab, V domains shown)
VH: EVQLVESGGGLVQPGGSLRLSCAASGFTFSDYAMNWVRQAPGKGLEWVGRTRSKYNSYATYYAASVKGRFTISRDDSKNSLYLQMNSLKTEDTAVYYCVRHGNFGNSYVSWFAVWGQGTLVTVSS
VL: QAVVTQEPSLTVSPGGTVTLTCGSSTGAVTTSNYANWVQQKPGQAPRGLIGGTSNRAPWTPARFSGSLLGGKAALTLSGAQPEDEAEYYCALWYSNLWVFGGGTKLTVL
notes: also called HC9+LC2
B2: huSP34.9.4 Fab-HF (Fab, V domains shown)
VH: EVQLVESGGGLVQPGGSLRLSCAASGFTFSDYAMNWVRQAPGKGLEWVGRTRSKYNSYATYYAASVKGRFTISRDDSKNSLYLQMNSLKTEDTAVYYCVRHGNFGNSYVSWFAVWGQGTLVTVSS
VL: QAVVTQEPSLTVSPGGTVTLTCGSSTGAVTTSHYANWVQQKPGQAPRGLIGGTSKRAPWTPARFSGSLLGGKAALTLSGAQPEDEAEYYCALWYSALWVFGGGTKLTVL
notes: also called HC9+LC4
B3: huSP34.9.5 Fab-HF (Fab, V domains shown)
VH: EVQLVESGGGLVQPGGSLRLSCAASGFTFSDYAMNWVRQAPGKGLEWVGRTRSKYNSYATYYAASVKGRFTISRDDSKNSLYLQMNSLKTEDTAVYYCVRHGNFGNSYVSWFAVWGQGTLVTVSS
VL: QAVVTQEPSLTVSPGGTVTLTCGSSTGAVTTGHYANWVQQKPGQAPRGLIGGTSNRAPWTPARFSGSLLGGKAALTLSGAQPEDEAEYYCALWYSARWVFGGGTKLTVL
notes: also called HC9+LC5
B4: huSP34.10.1 Fab-HF (Fab, V domains shown)
VH: EVQLVESGGGLVQPGGSLRLSCAASGFTFSDYAMNWVRQAPGKGLEWVGRTRSKYNSYATYYAASVKGRFTISRDDSKNSLYLQMNSLKTEDTAVYYCVRHGNFGHSYVSWFAVWGQGTLVTVSS
VL: QAVVTQEPSLTVSPGGTVTLTCRSSTGAVTTSNYANWVQQKPGQAPRGLIGGTNKRAPWTPARFSGSLIGDKAALTLSGAQPEDEAEYYCALWYSNLWVFGGGTKLTVL
notes: also called HC10+LC1
B5: huSP34.10.2 Fab-HF (Fab, V domains shown)
VH: EVQLVESGGGLVQPGGSLRLSCAASGFTFSDYAMNWVRQAPGKGLEWVGRTRSKYNSYATYYAASVKGRFTISRDDSKNSLYLQMNSLKTEDTAVYYCVRHGNFGHSYVSWFAVWGQGTLVTVSS
VL: QAVVTQEPSLTVSPGGTVTLTCGSSTGAVTTSNYANWVQQKPGQAPRGLIGGTSNRAPWTPARFSGSLLGGKAALTLSGAQPEDEAEYYCALWYSNLWVFGGGTKLTVL
notes: also called HC10+LC2
B6: huSP34.10.4 Fab-HF (Fab, V domains shown)
VH: EVQLVESGGGLVQPGGSLRLSCAASGFTFSDYAMNWVRQAPGKGLEWVGRTRSKYNSYATYYAASVKGRFTISRDDSKNSLYLQMNSLKTEDTAVYYCVRHGNFGHSYVSWFAVWGQGTLVTVSS
VL: QAVVTQEPSLTVSPGGTVTLTCGSSTGAVTTSHYANWVQQKPGQAPRGLIGGTSKRAPWTPARFSGSLLGGKAALTLSGAQPEDEAEYYCALWYSALWVFGGGTKLTVL
notes: also called HC10+LC4
B7: huSP34.10.5 Fab-HF (Fab, V domains shown)
VH: EVQLVESGGGLVQPGGSLRLSCAASGFTFSDYAMNWVRQAPGKGLEWVGRTRSKYNSYATYYAASVKGRFTISRDDSKNSLYLQMNSLKTEDTAVYYCVRHGNFGHSYVSWFAVWGQGTLVTVSS
VL: QAVVTQEPSLTVSPGGTVTLTCGSSTGAVTTGHYANWVQQKPGQAPRGLIGGTSNRAPWTPARFSGSLLGGKAALTLSGAQPEDEAEYYCALWYSARWVFGGGTKLTVL
notes: also called HC10+LC5
B8: huSP34.5.6 Fab-HF (Fab, V domains shown)
VH: EVQLVESGGGLVQPGGSLRLSCAASGFTFSTYAMNWVRQAPGKGLEWVGRIRSKYNNYATYYADSVKGRFTISRDNSKNTLYLQMNSLRAEDTAVYYCVRHGNFGHSYVSWFAVWGQGTLVTVSS
VL: QAVVTQPPSLTVSPGGTVTLTCGSSTGAVTTGHYANWVQQKPGQAPRGLIGGTSNRAPGVPARFSGSLSGGKAALTISGAQPEDEAEYYCALWYSARWVFGGGTKLTVL
notes: also called HC5+LC6

Target: T1, biotinylated CD3 epsilon:delta heterodimer protein (Amsbio AMS.CDD-H52WO) (Homo sapiens (Human), UniProt P07766 23-126; P04234 22-105)
T1 construct: also called CD3 heterodimer
Assay: BLI (Octet), CD3 on SA sensor, Fab analyte;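 further: biolayer interferometry with biotinylated CD3 epsilon:delta captured on streptavidin sensors, Fab analyte at several concentrations up to 300 nM, 100 s association then 300 s dissociation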
Procedure: The CD3 binding kinetics of the purified huSP34 Fabs were determined using OctetRed384 (Pall ForteBio, CA) biolayer interferometry (BLI). […] Streptavidin (SA) coated biosensors tips (Pall ForteBio, CA) were used to capture biotinylated CD3 epsilon: delta heterodimer and typical immobilization levels captured on the SA sensors were 1 nm which approximately translates to 300 ng/ml of captured protein. For kinetic measurements biosensors were first pre-wetted with assay buffer for 10 minutes to remove protective sucrose coating followed by the recommended regeneration conditions for standardization of the biosensor surface for the experiment. In order to load the biosensors with antigen, 300 ng/ml of biotinylated CD3 epsilon: delta heterodimer protein (Amsbio AMS.CDD-H52WO) was immobilized on the SA sensor for 900 seconds. The CD3 loaded biosensors were then blocked with 20 ug/ml biocytin (sigma) for 200 seconds and then dipped into assay buffer containing wells for 200 seconds to remove any non-specific protein or unbound CD3 heterodimer.
CD3 loaded and biocytin blocked biosensors were then transferred into fresh assay buffer for 200 seconds to collect a baseline read. Kinetic measurements for anti-CD3 Fab and bispecific antibody binding were performed by dipping the CD3-coated biosensors into wells containing multiple concentrations of Fab or Ab (0-300 nM) for 100 seconds followed by a 300 second dissociation time by transferring the biosensors into assay buffer containing wells. The CD3 loaded sensors were then regenerated for the next kinetic measurement. Biosensors were generated by removing bound Fabs or Ab from immobilized CD3 on SA biosensors. Regeneration conditions used consisted of 3 cycles of 5 seconds of dipping the biosensors in Regeneration Buffer (10 mM Glycine HCl pH 1.5) followed by Assay Buffer (10 mM sodium phosphate pH 7.4, 140 mM Sodium Chloride, 0.005% Tween20 with 0.2% BSA).

Binder	Kd	koff	kon	binding result
B1	761 nM	0.145 s⁻¹	192000 M⁻¹ s⁻¹	
B2	6120 nM	0.25 s⁻¹	40900 M⁻¹ s⁻¹	
B3				no binding (tested: 0-300 nM)
B4				no binding (tested: 0-300 nM)
B5	307 nM	0.0664 s⁻¹	225000 M⁻¹ s⁻¹	
B6				no binding (tested: 0-300 nM)
B7	222 nM	0.0827 s⁻¹		
B8	268 nM	0.0746 s⁻¹	280000 M⁻¹ s⁻¹	
